Laboratory results: patent US20140286963A1 (Genentech, published 2014)

Assays:
[1] = molecular target: T1, human BACE1 extracellular domain, amino acids 1-457 of SEQ ID NO:49 (human, UniProt P56817 22-457, biotinylated in the phage sorting, phage ELISAs and the competition ELISA (sites not given)); experiment: cell-based or functional assay
[2] = molecular target: T1, human BACE1 extracellular domain, amino …; experiment: phage competition ELISA IC50, against parent Fab5
Experimental: (§1) Single colonies (in XL1 blue cells) of the selected clones were picked up and grown in 1 ml 2YT broth supplemented with 50 μg/ml carbenicillin, 10 μg/ml tetracycline and M13KO7 at 37° C. for 2 h. Kanamycin (25 μg/ml) was added to the culture, which continued to grow for 6 h. The culture was transferred to 30 ml 2YT broth supplemented with 50 μg/ml carbenicillin and 25 μg/mlkanamycin and grown at 37° C. overnight. Phage were harvested and purified as previously described (Sidhu, S. S. et al. Methods Enzymol. 328: 333-363 (2000)). The purified Fab-displaying phage were serially diluted in PBT buffer and tested for binding to BACE1 immobilized on a plate. A fixed phage concentration that gives 80% of saturation signals was selected for the subsequent competition ELISA. […] The plate was then washed for 8 times and bound phage were detected by anti-M13-HRP.
(§2) To estimate the affinity of these 6 clones, phage competition ELISAs were performed, as described above, and IC₅₀ values were determined (FIG. 7). The IC₅₀ values were determined by fitting the data to a four-parameter logistic equation developed by Marquardt (Marquardt, D. W. SIAM J. Appl. Math. 11: 431-441 (1963)) using Kaleidagraph (Synergy Software) and are shown below in Table 2.

[3] = molecular target: T1, human BACE1 extracellular domain, amino …; experiment: one-point competition phage ELISA, plate-immobilized BACE1, 20 nM BACE1 in solution
Experimental: (§3) Screening of the libraries for affinity maturation of initially obtained antibodies was carried out similarly as described above. […] For rounds 2 and 3, 20 nM and 5 nM biotinylated BACE1 was incubated with amplified phage, respectively. Clones (96) from each of the two libraries were screened in a one-point competition ELISA, where 20 nM of BACE1 was used in solution to compete the phage particle from binding to plate-immobilized BACE1 as described below.
(§4) A plate immobilized with BACE1 was prepared by capturing 2 μg/ml biotinylated BACE1 for 15 min using a 384-well Maxisorp Immunoplate that was previously coated with 2 μg/ml of Neutravidin at 4° C. for overnight and blocked with Blocking Buffer. The culture supernatants from individual clones grown in a 96-well format were diluted 20-fold in PBT buffer and was incubated with or without 20 nM BACE1 at room temperature for 1 h. The mixture was transferred to the plate with immobilized BACE1 and incubated for 15 min. The plate was washed six times by PT buffer and the bound phage was detected by anti-M13-HRP as described above. The ratio between the ELISA signal from the well in the absence and the presence of BACE1 in solution indicates the affinity of the clone, where higher ratios indicate the higher affinities.

[4] = molecular target: T1, human BACE1 extracellular domain, amino …; experiment: phage competition ELISA: Fab-displaying phage on plate-immobilized BACE1, serial dilutions of BACE1 in solution
Experimental: Single colonies (in XL1 blue cells) of the selected clones were picked up and grown in 1 ml 2YT broth supplemented with 50 μg/ml carbenicillin, 10 μg/ml tetracycline and M13KO7 at 37° C. for 2 h. Kanamycin (25 μg/ml) was added to the culture, which continued to grow for 6 h. The culture was transferred to 30 ml 2YT broth supplemented with 50 μg/ml carbenicillin and 25 μg/mlkanamycin and grown at 37° C. overnight. Phage were harvested and purified as previously described (Sidhu, S. S. et al. Methods Enzymol. 328: 333-363 (2000)). The purified Fab-displaying phage were serially diluted in PBT buffer and tested for binding to BACE1 immobilized on a plate. A fixed phage concentration that gives 80% of saturation signals was selected for the subsequent competition ELISA. The competition was conducted by incubating the fixed, sub-saturating Fab-displaying phage with serial dilutions of BACE1 for 1 h and then transferred to the BACE1-immobulized plate for 15 min to capture unbound phage. The plate was then washed for 8 times and bound phage were detected by anti-M13-HRP.
as §2

[5] = molecular target: T1, human BACE1 extracellular domain, amino …; experiment: one-point phage competition ELISA: ratio of the ELISA signal of Fab-displaying phage on plate-immobilized BACE1 without / with 20 nM BACE1 in solution
Experimental: as §3, §4

[6] = molecular target: T1, human BACE1 extracellular domain, amino …; experiment: cell-based or functional assay; remark: listed apart in the source
[7] = molecular target: T1, human BACE1 extracellular domain, amino …; experiment: phage competition ELISA: Fab-displaying phage incubated with serial dilutions of BACE1 in solution, unbound phage captured on plate-immobilized BACE1, anti-M13-HRP, OD450
Experimental: as §1, §2

[8] = molecular target: T1, human BACE1 extracellular domain, amino …; experiment: phage competition ELISA IC50; parent, reference for LC9, LC10 and LC6
[9] = molecular target: T2, human BACE2 extracellular domain (human, UniProt Q9Y5Z0 21-473); experiment: SPR
T2 construct: extracellular domain; The extracellular domain is stated for the MCE enzyme assay; also called human recombinant BACE2 extracellular domain
T2 sequence (looked up): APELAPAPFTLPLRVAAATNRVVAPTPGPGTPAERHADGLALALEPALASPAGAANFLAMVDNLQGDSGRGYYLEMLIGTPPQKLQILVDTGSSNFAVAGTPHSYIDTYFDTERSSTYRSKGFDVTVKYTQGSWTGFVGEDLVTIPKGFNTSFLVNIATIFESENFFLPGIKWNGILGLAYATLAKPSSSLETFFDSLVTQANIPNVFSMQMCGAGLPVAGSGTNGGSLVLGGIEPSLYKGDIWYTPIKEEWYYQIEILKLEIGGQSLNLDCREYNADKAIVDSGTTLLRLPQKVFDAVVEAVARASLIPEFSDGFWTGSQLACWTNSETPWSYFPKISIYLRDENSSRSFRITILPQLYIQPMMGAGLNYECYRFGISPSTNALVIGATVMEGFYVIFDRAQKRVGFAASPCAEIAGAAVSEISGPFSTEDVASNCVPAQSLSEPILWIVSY

[10] = molecular target: BACE1 of 293-HEK cells stably expressing wild-type human APP (UniProt P56817 46-501); experiment: cell-based or functional assay
[11] = molecular target: BACE1 of primary mouse neurons (mouse, UniProt P56818 46-501); experiment: cell-based or functional assay
[12] = molecular target: T3, Guinea pig BACE1 (Guinea pig); experiment: SPR (BIAcore-3000), IgG captured by anti-human Fc antibody, pH 7.0
T3 construct: The method text names only the human and murine ECD; The guinea pig construct is not described

[13] = molecular target: T1, human BACE1 extracellular domain, amino …; experiment: SPR (BIAcore-3000), IgG captured by anti-human Fc antibody, BACE1 ECD injected, 25 C, pH 7.0
Experimental: (§5) Association rates (kₒₙ) and dissociation rates (koff) were calculated using a simple one-to-one Langmuir binding model (BIAcore™ Evaluation Software version 3.2). The equilibrium dissociation constant (KD) was calculated as the ratio koff/kₒₙ.

[14] = molecular target: T1, human BACE1 extracellular domain, amino …; experiment: SPR (BIAcore-3000), second unlabelled row under Human, IgG captured by anti-human Fc antibody, pH 7.0
Experimental: as §5

[15] = molecular target: T1, human BACE1 extracellular domain, amino …; experiment: phage competition ELISA IC50, against parent Fab14

Sequence of BACE1 of primary mouse neurons (P56818 46-501): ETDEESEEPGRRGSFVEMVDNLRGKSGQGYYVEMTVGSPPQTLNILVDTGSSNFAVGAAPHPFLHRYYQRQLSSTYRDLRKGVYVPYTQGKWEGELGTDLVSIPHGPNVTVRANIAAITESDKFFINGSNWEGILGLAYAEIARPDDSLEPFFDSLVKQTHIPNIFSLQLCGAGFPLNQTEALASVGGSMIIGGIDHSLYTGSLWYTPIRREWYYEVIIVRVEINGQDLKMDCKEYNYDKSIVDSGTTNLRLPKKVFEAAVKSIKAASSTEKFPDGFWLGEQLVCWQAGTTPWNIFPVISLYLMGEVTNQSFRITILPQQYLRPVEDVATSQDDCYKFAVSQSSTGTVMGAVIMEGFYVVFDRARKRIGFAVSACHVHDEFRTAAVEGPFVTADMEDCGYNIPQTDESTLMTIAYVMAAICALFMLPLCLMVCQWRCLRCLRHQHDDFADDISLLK
T1 sequence (P56817 22-457): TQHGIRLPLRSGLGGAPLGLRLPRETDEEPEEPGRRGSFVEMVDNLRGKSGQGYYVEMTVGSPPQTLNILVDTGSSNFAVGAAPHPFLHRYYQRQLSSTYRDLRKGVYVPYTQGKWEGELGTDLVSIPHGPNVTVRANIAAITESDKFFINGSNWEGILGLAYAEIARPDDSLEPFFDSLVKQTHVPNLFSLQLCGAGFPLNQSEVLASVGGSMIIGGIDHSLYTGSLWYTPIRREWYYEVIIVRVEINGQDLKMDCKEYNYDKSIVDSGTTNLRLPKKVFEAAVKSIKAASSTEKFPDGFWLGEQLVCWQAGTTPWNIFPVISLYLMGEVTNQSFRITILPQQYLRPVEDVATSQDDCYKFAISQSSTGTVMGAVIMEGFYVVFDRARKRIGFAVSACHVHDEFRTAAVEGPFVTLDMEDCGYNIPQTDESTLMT
Sequence of BACE1 of 293-HEK cells stably expressing wild-type human APP (P56817 46-501): as the sequence (P56818 46-501) above, with S6P, I162V, I165L, T180S, A182V, V340I, A393L, H443Q counted along it

B1: Fab LC 4 (Fab, V domains shown)
VH: EVQLVESGGGLVQPGGSLRLSCAASGFNLSYSYIHWVRQAPGKGLEWVASIYSSYGSTYYADSVKGRFTISADTSKNTAYLQMNSLRAEDTAVYYCARSYHHSDKYYYAWSYALDYWGQGTLVTVSS
VL: DIQMTQSPSSLSASVGDRVTITCRASQSVSSAVAWYQQKPGKAPKLLIYSASSLYSGVPSRFSGSGSGTDFTLTISSLQPEDFATYYCQQYSYSLLTFGQGTKVEIK
IC50 (nM), HTRF enzyme activity assay [1]: 480 nM
Fold affinity improvement [2]: 45 fold
ratio of ELISA signal in the absence to the presence of BACE1 in solution [3]: > 4 ratio
IC50 [4]: 0.46 nM
Competition ELISA Ratio [5]: 6.3

B2: Fab LC 6 (Fab, V domains shown)
VH: EVQLVESGGGLVQPGGSLRLSCAASGFNFYYSSIHWVRQAPGKGLEWVASISPYSGYTSYADSVKGRFTISADTSKNTAYLQMNSLRAEDTAVYYCARQPTHYYYYAKGYKAMDYWGQGTLVTVSS
VL: DIQMTQSPSSLSASVGDRVTITCRASQSVSSAVAWYQQKPGKAPKLLISWASWLYSGVPSRFSGSGSGTDFTLTISSLQPEDFATYYCQQYSYSPFTFGQGTKVEIK
improvement in inhibition activity against parent Fab 12, HTRF enzyme activity assay [6]: ~20 fold
IC50 (nM), HTRF enzyme activity assay [1]: 160 nM
IC50 (read off the curve) [7]: ~0.3 nM

B3: Fab 12 (Fab, V domains shown)
VH: EVQLVESGGGLVQPGGSLRLSCAASGFNFYYSSIHWVRQAPGKGLEWVASISPYSGYTSYADSVKGRFTISADTSKNTAYLQMNSLRAEDTAVYYCARQPTHYYYYAKGYKAMDYWGQGTLVTVSS
VL: DIQMTQSPSSLSASVGDRVTITCRASQSVSSAVAWYQQKPGKAPKLLIYSASSLYSGVPSRFSGSGSGTDFTLTISSLQPEDFATYYCQQYSYSPFTFGQGTKVEIK
Fold affinity improvement [8]: 1 fold
IC50 [4]: 45.3 nM

B4: YW412.8.31 anti-BACE1 human IgG (antibody, V domains shown)
VH: EVQLVESGGGLVQPGGSLRLSCAASGFTFLGYGIHWVRQAPGKGLEWVGWISPAGGSTDYADSVKGRFTISADTSKNTAYLQMNSLRAEDTAVYYCARGPFSPWVMDYWGQGTLVTVSS
VL: DIQMTQSPSSLSASVGDRVTITCRASQDVSTAVAWYQQKPGKAPKLLIYSASFLYSGVPSRFSGSGSGTDFTLTISSLQPEDFATYYCQQFPTYLPTFGQGTKVEIK
notes: also called YW412.8.31 antibody
binding result [9]: no binding
IC50, HTRF long peptide assay [6]: 1.7 nM
IC50, microfluidic capillary electrophoresis assay [6]: 0.08 nM
IC50, short FRET peptide assay [6]: 17 nM
IC50, Aβ1-40 production in APP-expressing 293 cells [10]: 17 nM
IC50, Aβ40 production in DRG neurons [11]: 8.4 nM
IC50, Aβ40 production in cortical and hippocampal neurons [11]: 2.3 to 2.6 nM
Kd [12]: 2.6 nM
koff [12]: 0.00027 s⁻¹
kon [12]: 100000 M⁻¹ s⁻¹
Kd [13]: 2.9 nM
koff [13]: 0.00031 s⁻¹
kon [13]: 110000 M⁻¹ s⁻¹
Kd [14]: 1.32 nM
koff [14]: 0.000139 s⁻¹
kon [14]: 105000 M⁻¹ s⁻¹

B5: Fab LC 9 (Fab, V domains shown)
VH: EVQLVESGGGLVQPGGSLRLSCAASGFNFYYSSIHWVRQAPGKGLEWVASISPYSGYTSYADSVKGRFTISADTSKNTAYLQMNSLRAEDTAVYYCARQPTHYYYYAKGYKAMDYWGQGTLVTVSS
VL: DIQMTQSPSSLSASVGDRVTITCRASQSVSSAVAWYQQKPGKAPKLLIWYASWLYSGVPSRFSGSGSGTDFTLTISSLQPEDFATYYCQQYSYSPFTFGQGTKVEIK
improvement in inhibition activity against parent Fab 12, HTRF enzyme activity assay [6]: ~20 fold
IC50 (nM), HTRF enzyme activity assay [1]: 140 nM

B6: Fab LC10 (Fab, V domains shown)
VH: EVQLVESGGGLVQPGGSLRLSCAASGFNFYYSSIHWVRQAPGKGLEWVASISPYSGYTSYADSVKGRFTISADTSKNTAYLQMNSLRAEDTAVYYCARQPTHYYYYAKGYKAMDYWGQGTLVTVSS
VL: DIQMTQSPSSLSASVGDRVTITCRASQSVSSAVAWYQQKPGKAPKLLIWWASSLYSGVPSRFSGSGSGTDFTLTISSLQPEDFATYYCQQYSYSPFTFGQGTKVEIK
improvement in inhibition activity against parent Fab 12, HTRF enzyme activity assay [6]: ~20 fold

B7: Fab LC 40 (Fab, V domains shown)
VH: EVQLVESGGGLVQPGGSLRLSCAASGFNVSSSSMHWVRQAPGKGLEWVASIYPYSSSTSYADSVKGRFTISADTSKNTAYLQMNSLRAEDTAVYYCARYSYYSYGIDYWGQGTLVTVSS
VL: DIQMTQSPSSLSASVGDRVTITCRASQYSYSYSVAWYQQKPGKAPKLLISYASYLYSGVPSRFSGSGSGTDFTLTISSLQPEDFATYYCQQYSYSYSPITFGQGTKVEIK
Fold affinity improvement [15]: 3 fold
ratio of ELISA signal in the absence to the presence of BACE1 in solution [3]: > 3 ratio
IC50 [4]: 4.7 nM
Competition ELISA Ratio [5]: 3
